Laboratory results from the Immune Epitope Database (IEDB).

Assays:
Experiment in all cases: IEDB peptide-MHC binding, purified MHC/competitive/radioactivity; filed as Kd, often an IC50 or EC50 that approximates it; ≥ and ≤ were set here for values at or beyond the usual limits of such assays
Details in all cases: source organism: Lake Victoria marburgvirus - Angola2005
HLA-A*26:01 = target: HLA-A*26:01
HLA-B*07:02 = target: HLA-B*07:02
HLA-A*68:02 = target: HLA-A*68:02
HLA-A*68:01 = target: HLA-A*68:01
HLA-A*30:01 = target: HLA-A*30:01
HLA-A*24:02 = target: HLA-A*24:02
HLA-A*02:06 = target: HLA-A*02:06
HLA-A*02:03 = target: HLA-A*02:03
HLA-B*08:01 = target: HLA-B*08:01
HLA-B*15:01 = target: HLA-B*15:01
HLA-A*23:01 = target: HLA-A*23:01
HLA-B*44:02 = target: HLA-B*44:02
HLA-B*40:01 = target: HLA-B*40:01
HLA-A*30:02 = target: HLA-A*30:02
HLA-A*32:01 = target: HLA-A*32:01

Question: Which results are given for EVASFKQAL?
Answer: Kd (HLA-A*26:01): 86 nM; Kd (HLA-B*07:02): 250 nM; Kd (HLA-A*68:02): 2.7 nM

Question: For TVLEFILQK, which Kd (HLA-A*68:01) is on record?
Answer: 2.2 nM

Question: And the Kd (HLA-A*30:01)?
Answer: 365 nM

Question: HYSPLILAL was tested. Which Kd (HLA-A*24:02) did it give?
Answer: 64 nM

Question: How did the Kd (HLA-A*02:06) turn out when GLYPQLSAI was run?
Answer: 6.9 nM

Question: What about the Kd (HLA-A*02:03) of the same sequence?
Answer: 1.4 nM

Question: Which Kd (HLA-B*07:02) does the source give for APFARVLNL here?
Answer: 0.21 nM

Question: And the Kd (HLA-B*08:01)?
Answer: 67 nM

Question: For LIVKTVLEF, which Kd (HLA-B*15:01) is on record?
Answer: 0.8 nM

Question: What about the Kd (HLA-A*23:01) of the same sequence?
Answer: 109 nM

Question: GEYAPFARV was tested. Which Kd (HLA-B*44:02) did it give?
Answer: 214 nM

Question: And the Kd (HLA-B*40:01)?
Answer: 107 nM

Question: Which results are given for KVKNEVASF?
Answer: Kd (HLA-A*30:02): 158 nM; Kd (HLA-B*15:01): 5.6 nM; Kd (HLA-A*32:01): 2.9 nM
